# Patent US20050065080A1, “Use of leptin in fertility” (priority 2001, published 2005)
# Columns and labels:
# ob/ob mice [1] = test: Follicular development in antide-treated ob/ob mice (hematoxylin-eosin ovarian sections); format: in vivo, mouse; conditions: for follicular growth in ovarian sections: single agent
# Procedure: The effect of leptin in follicular development was studied in ob/ob mice that were treated with the GnRH antagonist antide (Phillips et al. 1988). It is therefore expected that following administration of leptin to antide treated mice, as opposed to non-treated mice, release of LH or FSH from the pituitary gland will not occur.
# 8-10 week-old obese C57B1-ob/ob female mice were all injected (time 0) with antide (1.25 μg/g body weight). Mice were divided into several groups. A control group was injected with saline only. A second group was injected with murine leptin (ip,2×5 μg/g body weight purchased from R&D systems) at times 0 and 9 h. A third group was injected with pregnant mare serum gonadotropins (PMSG, 3 IU/mice, sc). A fourth group received a combination of both PMSG and leptin. Mice were sacrificed at 9, 24, and 48 and 72 h following the first treatment, the ovaries were excised, paraffin-fixed and stained with hematoxylin-eosin to visualize follicular and ovarian growth.
# C57BL/6 mice = test: Ovulation induction in antide-treated prepubertal C57BL/6 mice (oocyte count); format: in vivo, mouse; conditions: for Oocyte count in C57BL/6 mice: antide-treated, PMSG at 0 h, leptin or hCG at 48 h, oocytes counted at 72 h, range
# Procedure: (§1) In the present example, ovulation was studied in ob/ob mice and in prepubertal C57BL/6 mice. All mice were treated with antide to prevent induction of LH by leptin. […] Following the various treatments, mice were sacrificed and oocytes were collected from the ampoule at 72 hours from the first injection and counted.
# (§2) Similarly a group of ob/ob mice were injected with PMSG (3 IU/animal) and after 48 h with leptin (2×5 μg/g weight). […] Ovulation was monitored by counting oocytes in the oviducts under the microscope.
# LH = test: Serum LH radioimmunoassay in antide-treated mice; format: in vivo, mouse
# Procedure: Leptin induces the GnRH release from the Hypothalamus, which in turn releases FSH and LH from the Pituitary glands (Yu et al. 1997). To test if the follicle development and ovulation induced in the antide-treated C57BL mice and ob/ob mice by leptin is mediated by LH release, serum LH as well as progesterone, which is an LH-induced marker was measured. Measurement of plasma murine LH (mLH) and progesterone were carried out with specific radioimmunoassays. Progesterone was determined in mouse sera by RIA (Kohen 1975). LH was determined in mouse by a specific RIA, obtained trough the National Hormone & Pituitary Program, harbor-UCLA Medical Center (Torrance, California). The levels of mLH were below 0.2 ng/ml in all cases (Table 2). The levels of LH remained low throughout the follicular growth and ovulation in leptin-treated mice. However, it is difficult to detect the LH surge even in positive controls. Therefore, measurement of the LH-induced serum progesterone serve as a more reliable marker of circulating LH.
# ob/ob mice [2] = test: Ovulation induction in antide-treated ob/ob mice (oocyte count); format: in vivo, mouse; conditions: for Oocyte count in ob/ob mice: antide-treated, PMSG at 0 h, leptin or hCG at 48 h, oocytes counted at 72 h, range
# Procedure: as §1, §2
# uterus = test: Appearance of the uterus in treated mice; format: in vivo, mouse; conditions: for uterus distension and hyperemia: after PMSG, or PMSG followed by hCG or leptin, leptin: ob/ob mice that ovulated
# ADAMTS-1 = ADAMTS-1 expression in cultured pre-ovulatory follicles (quantitative RT-PCR); format: cell-based, mouse; conditions: 17 h; leptin 250 ng/ml or hCG 1 IU; normalized to ribosomal protein L19; FIG. 2
# Procedure: Pre-ovulatory follicles were removed, cultured and further treated for 17 h in the absence or presence of either leptin (250 ng/ml) or hCG (1 IU). Total RNA was isolated from the follicles and subjected to quantitative RT-PCR using the LightCycler™ (Roche diagnostics). The primers used for the detection of murine ADAMTS-1 transcripts were:
# Cathepsin L = Cathepsin L expression in cultured pre-ovulatory follicles (quantitative RT-PCR); format: cell-based, mouse; conditions: 17 h; not statistically significant
# From the text: Total RNA was isolated from the follicles and subjected to quantitative RT-PCR with specific primers for two proteases, ADAMTS-1 and Cathepsin L. The PCR products were resolved in agarose gel electrophoresis and scanned. The RNAs levels of ADAMTS-1 were normalized to the RNAs levels of ribosomal protein
# To test whether leptin can induce the expression of ADAMTS-1 and cathepsin L by acting directly on the ovary, in vitro experiments were preformed on pre-ovulatory follicles obtained from 21 days old C57BL/6 mice treated with PMSG (3 IU/animal) for 48 h. […] Total RNA was isolated from the follicles and subjected to quantitative RT-PCR using the LightCycler™ (Roche diagnostics). The primers used for the detection of murine ADAMTS-1 transcripts were: […]
# The RNAs levels of ADAMTS-1 and cathepsin L detected in agarose gel electrophoresis of the PCR products were normalized to the RNAs levels of murine ribosomal protein L19
# progesterone = test: Serum progesterone radioimmunoassay in ob/ob and C57BL/6 mice; format: in vivo, mouse; conditions: PMSG at time 0, agent at 48 h, RIA at 72 h; FIG. 1
# Procedure: Mice were treated with PMSG at time 0 and the indicated agent at 48 h. Progesterone was determined by RIA at 72 h in sera of C57BL/6 mice (grey bars) and of ob/ob mice (open bars).
# [3] = antide + PMSG (48 h) then leptin or hCG (24 h)
molecule,measurement,setting,value
antide [reference compound],follicular growth in ovarian sections,ob/ob mice [1]; antide-treated ob/ob mice,only early stages of follicular growth
same,Oocyte count in C57BL/6 mice,C57BL/6 mice,0
same,Serum LH,"LH; antide-treated mice, 72 h",0.04 ± 0.01 ng/mL
"pregnant mare serum gonadotropins [PMSG, reference compound]",follicular growth in ovarian sections,ob/ob mice [1]; antide-treated ob/ob mice,large antral follicles were formed at 72 h
same,Oocyte count in ob/ob mice,ob/ob mice [2],0 oocytes per mouse
same,uterus distension and hyperemia,uterus,maximal distension
same,Oocyte count in C57BL/6 mice,C57BL/6 mice,0
same,Serum LH,"LH; antide + PMSG, 60 h",0.2 ng/mL
same,Serum LH,"LH; antide-treated mice, 72 h",0.09 ± 0.01 ng/mL
"leptin (protein, UniProt P41160 22-167, looked up, murine leptin purchased from R&D systems; adipocyte-secreted protein encoded by the obese (ob) gene) Leptin: VPIQKVQDDTKTLIKTIVTRINDISHTQSVSAKQRVTGLDFIPGLHPILSLSKMDQTLAVYQQVLTSLPSQNVLQIANDLENLRDLLHLLAFSKSCSLPQTSGLQKPESLDGVLEASLYSTEVVALSRLQGSLQDILQQLDVSPEC",induction of ADAMTS-1 RNA,ADAMTS-1,significant induction
same,ovarian growth,"ob/ob mice [1]; antide-treated ob/ob mice, concomitant PMSG and leptin, after 72 h",an interstitial cell growth and further ovarian growth were observed
same,time at which large follicles could be observed after initiation of treatment,"ob/ob mice [1]; antide-treated ob/ob mice, as early as",9 h
same,follicular growth in ovarian sections,ob/ob mice [1]; antide-treated ob/ob mice,induced rapid follicular growth
same,corpora lutea in the ovaries,"ob/ob mice [1]; ob/ob mice, PMSG at time 0 and leptin instead of hCG at 48 h, seen at 72 h",corpora lutea were also seen
same,induction of Cathepsin L RNA,Cathepsin L,Marginal induction
same,serum progesterone,progesterone,lack of significant progesterone synthesis
same,ovulation (oocytes in the oviducts),"ob/ob mice [2]; PMSG then agent at 48 h, summary of Table 1",ovulation was observed
same,"mice ovulated, ob/ob mice",ob/ob mice [2]; [3],3 out of 5 mice ovulated
same,Oocyte count in ob/ob mice,ob/ob mice [2],(range 1-6 oocytes per oocytes per mouse
same,uterus distension and hyperemia,uterus,"remained hyperemic, exhibiting maximal distension"
same,uterine features,uterus; antide-treated C57BL/6 mice,"same uterine features, were also observed"
same,uterus hyperemia,uterus; leptin in the absence of PMSG,rendered the uterus hyperemic
same,"mice ovulated, C57BL/6 mice",C57BL/6 mice; [3],7 out of 7 mice
same,Oocyte count in C57BL/6 mice,C57BL/6 mice,(2-7)
same,Serum LH,LH; antide + PMSG 48 h then leptin 12 h,0.17 ± 0 ng/mL
same,Serum LH,LH; antide + PMSG 48 h then leptin 24 h,0.057 ± 0.01 ng/mL
same,Serum LH,"LH; antide + leptin, 9 h",0.05 ng/mL
same,Serum LH,"LH; antide + leptin, 24 h",0.06 ± 0.01 ng/mL
same,Serum LH,"LH; antide + leptin, 48 h",0.07 ± 0.04 ng/mL
same,Serum LH,"LH; antide-treated mice, 72 h",0.04 ± 0.01 ng/mL
